This series in a line: soluble on expression in E. coli; label from the status in PepcDB or PDB records.
In the case of “MMKPIIREAKPQDKPFIEEIAHLTWDGEDYLARVFDEWIKDGNFYVLELNGKVIGTVKLTLLPNRVSWMEGLRVHPNYHGRGFGKMLHNFIVEKGRMMASEGIIDALEFSPYFLNKKIIAMAEKNGFWVKARFFVASVRVGDFKPEEPIRIEPKLEDLTLGIIPVGWRFIKRSEEALEWIRKNAEVYEYNGLKFIGPKKETIFTPLEPGPAVLKALLPAMAWVAREKDKEEFNLMLSSSIKPVLSVFRRIGVYIWDDAKEPNVLVFRKKLKDKKGLIPFVNKWNYNKEY”, the “soluble on expression in E. coli” value is recorded as “not soluble”. For “MGSDKIHHHHHHMSETELRKRQAQFTRELHGDDIGKKTGLSALMSKNNSAQKEAVQKYLRNWDGRTDKDAEERRLEDYNEATHSYYNVVTDFYEYGWGSSFHFSRFYKGESFAASIARHEHYLAYKAGIQRGDLVLDVGCGVGGPAREIARFTGCNVIGLNNNDYQIAKAKYYAKKYNLSDQMDFVKGDFMKMDFEENTFDKVYAIEATCHAPKLEGVYSEIYKVLKPGGTFAVYEWVMTDKYDENNPEHRKIAYEIELGDGIPKMFHVDVARKALKNCGFEVLVSEDLADNDDEIPWYYPLTGEWKYVQNLANLATFFRTSYLGRQFTTAMVTVMEKLGLAPEGSKEVTAALENAAVGLVAGGKSKLFTPMMLFVARKPENAETPSQTSQEATQ” the value was “not soluble”.

Consider “MARPANTLQSLAELNGKAPSRRQLNIQHWNTAEGARVLFVEARELPMFDLRVTFAAGSSQDGGTPGLAALTNAMLNEGVAGKDVTAIAEGFEGLGADFGNGSYRDMAVASLRSLSAKDKREPALKLFTEVAGKPTFPEDALKRIKNQMLAGFEYEKQNPGKIAGKALFGKLYGDHPYAHPSDGTAESITGISLAQLRAFHAKAYTGGNAVIALVGDLSRAEAEAIAAQVSAGLPKGPALAAPAQPADAKAGLTHIDFPSKQTHLMLAELGIDRQDPDWPALSMGNQILGGGAFGTRLMSEVREKRGLTYGVYSVFSPMQVRGPFMINLQTRAELSEGTLKLVQGILADYLKTGPTQQELDDAKRELAGSFPLSNASNASIVGQLGAIGFYNLPLTWLEDFMQQSQALTVEQVKAAMNKHLSADKLVIVTVGPKVPQKPLEHHHHHH”, for which the “soluble on expression in E. coli” value is given as “not soluble”. For “MSLNKTKDIAASPLCFVSPYPQLAKAAEALVAQLDYAVTIHQTTLNRILDELPLLESRGHQVLISRGGCAEILKKHSKLPVVEIKMSGYDILDALIPFKGQKGTVGIVGFSSVIKGCARVAEQLNINYKIFTLQGNDKETISCLKRQLASTPLDCIVGDTVCQDYFSPLGSQFRLLDSSPASITEALEEARSLYLAFRSQLLERHHLQLILDQFDKAVITLDDTGALLHYNKYASQLFKINASGEIYDASFLKQVLHQERHTLREGKTVSAKVVDTPQGAMVVNLYPVFAARQLSRVVLTMQTVSSLQGAEHHVRRQELSRRGLSAREGHHHHHH” the value was “soluble”; for “MDKIEVRGARTHNLKNINLVIPRDKLIVVTGLSGSGKSSLAFDTLYAEGQRRYVESLSAYARQFLSLMEKPDVDHIEGLSPAISIEQKSTSHNPRSTVGTITEIHDYLRLLFARVGEPRCPDHDVPLAAQTVSQMVDNVLSQPEGKRLMLLAPIIKERKGEHTKTLENLASQGYIRARIDGEVCDLSDPPKLELQKKHTIEVVVDRFKVRDDLTQRLAESFETALELSGGTAVVADMDDPKAEELLFSANFACPICGYSMRELEPRLFSFNNPAGACPTCDGLGVQQYFDPDRVIQNPELSLAGGAIRGWDRRNFYYFQMLKSLADHYKFDVEAPWGSLSANVHKVVLYGSGKENIEFKYMNDRGDTSIRRHPFEGVLHNMERRYKETESSAVREELAKFISNRPCASCEGTRLRREARHVYVENTPLPAISDMSIGHAMEFFNNLKLAGQRAKIAEKILKEIGDRLKFLVNVGLNYLTLSRSAETLSGGEAQRIRLASQIGAGLVGVMYVLDEPSIGLHQRDNERLLGTLIHLRDLGNTVIVVEHDEDAIRAADHVIDIGPGAGVHGGEVVAEGPLEAIMAVPESLTGQYMSGKRKIEVPKKRVPANPEKVLKLTGARGNNLKDVTLTLPVGLFTCITGVSGSGKSTLINDTLFPIAQRQLNGATIAEPAPYRDIQGLEHFDKVIDIDQSPIGRTPRSNPATYTGVFTPVRELFAGVPESRARGYTPGRFSFNVRGGRCEACQGDGVIKVEMHFLPDIYVPCDQCKGKRYNRETLEIKYKGKTIHEVLDMTIEEAREFFDAVPALARKLQTLMDVGLTYIRLGQSATTLSGGEAQRVKLARELSKRGTGQTLYILDEPTTGLHFADIQQLLDVLHKLRDQGNTIVVIEHNLDVIKTADWIVDLGPEGGSGGGEILVSGTPETVAECEASHTARFLKPML”, “soluble”.

Consider “MGSDKIHHHHHHENEYITNIDRTFGTRISYEISKRYGELGLEGSRSITIGLKGHAGQSFCAFLAKGVSVTLEGDANDYVGKCLSGGKIVIFPPKAASYKSEENSVIGNVALYGATSGDCWFRGVAGERFAVRNSGANVIVEAVGDHGCEYMTGGRVIVLGSIGRNFAAAMSGGIAYLFAQEDNFSRLINAATVDLDDASTEDLIFVKAK”, for which the “soluble on expression in E. coli” value is “not soluble”. With “MLKKNDIVEVEIVDLTHEGAGVAKVDGLVFFVENALPSEKILMRVLKVNKKIGFGKVEKYLVQSPHRNQDLDLAYLRSGIADLGHLSYPEQLKFKTKQVKDSLYKIAGIADVEVAETLGMEHPVKYRNKAQVPVRRVNGVLETGFFRKNSHNLMPLEDFFIQDPVIDQVVVALRDLLRRFDLKPYDEKEQSGLIRNLVVRRGHYSGQIMVVLVTTRPKVFRVDQLIEQVIKQFPEIVSVMQNINDQNTNAIFGKEWRTLYGQDYITDQMLGNDFQIAGPAFYQVNTEMAEKLYQTAIDFAELKKDDVIIDAYSGIGTIGLSVAKHVKEVYGVELIPEAVENSQKNASLNKITNAHYVCDTAENAMKKWLKEGIQPTVILVDPPRKGLTESFIKASAQTGADRIAYISCNVATMARDIKLYQELGYELKKVQPVDLFPQTHHVETVALLSKLDVDKHISVEIELDEMDLTSAESKATYAQIKEYVWNKFELKVSTLYIAQIKKKCGIELREHYNKSKKDKQIIPQCTPEKEEAIMDALRHFKMI”, the “soluble on expression in E. coli” value was “not soluble”.

As for “MGSDKIHHHHHHMVMDHDIYFGYQRPRPTEYVQFANFDSRQLNLYLAGRIANNPPTKEVTESIGYMDGIIDFSDILGRRIFDNRTIEYQFKALNINYHDRKLLEQKCKRLLLIPMRQPIYDSHDLPFYWFGKASSVTANDDHVNNVLEITVQFNVSPYALRKGQFDDIWDNFSLETGYAQFTKYSVKGTKKISLYNDSDLKSRLKVICQNDMTINGKYKYTKNYQDNPNFRLEPGINDLTVNGNGDIEFQWESEVML”, the “soluble on expression in E. coli” value is recorded as “not soluble”. In the case of “MDQTQNTIAGIGEINGSIKTEINAIATVDDSNEKLNQIINSNQKILELLHQLKLTVSSFTPASQLHLLQRLNSLVMELDNMAKLSDKCNIQVPIEVLNLIDDGKNPDEFTKDVLNKNCIAKNQVTKGKSDAFKGLRKHLLEELEQAFPDEVDRYRDIRASYAAEAKRLAQTQSVLPNGDAKVKSEL” it was “soluble”; in that of “MSLKTIHITHPHHLIKEEQAKSVMALGYFDGVHLGHQKVIGTAKQIAEEKGLTLAVMTFHPHPSHVLGRDKEPKDLITPLEDKINQIEQLGTEVLYVVKFNEVFASLSPKQFIDQYIIGLNVQHAVAGFDFTYGKYGKGTMKTMPDDLDGKAGCTMVEKLTEQDKKISSSYIRTALQNGDVELANVLLGQPYFIKGIVIHGDKRGRTIGFPTANVGLNNSYIVPPTGVYAVKAEVNGEVYNGVCNIGYKPTFYEKRPEQPSIEVNLFDFNQEVYGAAIKIEWYKRIRSERKFNGIKELTEQIEKDKQEAIRYFSNLRKEGGSHHHHHH”, “soluble”. For the sequence “MPADRVAFPPTLIGIELDPRQGLSKQLYEILRRQILDGRLSSGMRLPASRDLAKSLAISRNSVMRAFDQLYAEGFIEGRVGDGTYVAQLAGRHAALQRNAPGKLSTNLPTGLHTGLCTGLSTFAVENTQNLLNQVIHNPALQRVEKHHLNEPPDDRPKAFRVGVPAFDLFPFALWGKLYASFWRKPNLDQLGYGAAAGEWRLRELVAAYLRSSRGLGCTAEQIVITSGAQHAISLCAQLLVTPGEGVAVENPGYRAAGHAFALAGARLQGVAVDSEGMRCADLEQTDCRLAYVTPSHQYPTGVVMSLARRLELLAWAEKNQSWIVEDDYDGEYRYSGSPLAPLAALDQNGRVLYVGTFGKIVFPALRLGYLVLPEHLVRPFSQRKAVDMRHTEIGVQAVMAQFIAQGHFQRHIRRMRRAALSRRDALLAGWPDNVPGCAAMPKVVAGLHVMVKVDSVAREQALIAKARSVGVEMSPLSGYWLSDSDEPVDNRAGLVLGFAAVPEPAIADALNRLRMVWSE”, the “soluble on expression in E. coli” value is recorded as “not soluble”. For “GPGSMADILKSVKRIVVKVGSSILVDNQEIAAHRIEALCKFIADLQTKYEVILVTSGAVAAGYTQKEMDKAYVPNKQALASMGQPLLMHMYYTQLQKHGILCAQMLLAAYDLDSRKRTMNAHNTIEVLISHKVIPIINENDATALHELVFGDNDRLSALVAHHFKADLLVILSDIDGYYTENPRASTDAKIRSVVHELSPDDLVAEATPNNPFATGGIVTKLQAAQFLLERGGKMYLSSGFHLEKAREFLFGGSHEIGTLFYPRGSSS” the value was “soluble”; for “MAHHHHHHMLFPTACPDLIAREHLFNTLLNPVVYRWMWGRLRSCFSDSEVMAYTNNLSCVSHSVVCELVNKYPHLHQHVFAGPVTVLNERKEAAVTAHAEPLMVDPVGWTRALAEVCRRDYDVQFALGERLEDAVTYLKYDVESTRSIRVSKPDPSHPEQRLFASEGYDVVILAAGASTGTMTLPNSRLPVLGLSGLSAVVQQPSGALKDAVWSLFQCRPHRSPAAAASSSSPEVDAPSSHEGVADPLARPAPGTLALLSSHCSPVWLHVAQ”, “soluble”; for “MSLENYQFPKDFLWGGAIAANQAEGAFKVDGKGISLADLHKYHKGKTNDEISEEQHKGVSLADIKASMEDKVNYYPKRHGIDFYHTYPEDLALLAEMGFKTFRTSLDWTRIFPTGEETEPNEAGLKYYDQLIDKIIELGMEPIITILHYETPVEIVLNNGGWHNRKVIDLFEKYGKTVLDRYNKKVKYWIVINQINLIQFEPFNSTAIPYDAVDDYLSATYQAVHNQFVASAKIYEYGKALNPDLMIGTMLADCTAYPFSCDPDDIVLAMKRNRMEYFFADVQFQGEYPQYALNYFDENNIHIEITEDDKAVLQKNTMDYLALSYYYSQMVDSKKNDLDPASITPNPHLKANPWGWAVDPKGLYNALSQYWDRYHKPIIIAENGFGMYDKLENGEIHDDYRIDYLSAHLKEMKRAMYDGVEIIAYCAWGPIDIVSCSSAQMEKRYGFIYVDLDNEGNGTGKRIKKDSFSWYKKVIESNGEDLEKGIITITTDPNSSSVDKLAAALEHHHHHH”, “soluble”.

For “MSLSSRYTPSEMAQALGAGLLSFPVTHFDADMAFDEPAYRSNLDWLSSHPAAGLFAAGGTGELFSLTLDEVDRAVRAAVTQTAGRMPVIAPAGYGTAIAVAMAQAAERNDADGILLFPPYLTECDADGVAEHVERVCKATSLGVIVYGRANARLDDVALARVAERCPNLVGYKDGIGDVERMTRIYARLGDRLLYVGGLPTAETFALPYLEMGVTTYSSAIFNFLPEWALSFYAAVRARDHATIYRELNDFVLPYTVLRNRRAGYAVSIVKAGMRAVGRPAGPVRTPLADLTEDEFAQLTQLIGGRREGHHHHHH”, the “soluble on expression in E. coli” value is “not soluble”. For “MIDLYYAPTPNGHKITLFLEEAELAYRLLKVDISKGNQFRPDFLAISPNNKIPAIVDHAPADGGQPLSLFESGEILLYLAEKSGKLLSGELRERHTTLQWLFWQVGGLGPMLGQNHHFNHFAPQAIPYAIERYQVETQRLYNVLNKRLETSPWLGGDHYSIADIASWPWVNAHQRQRIDLDTYPAVYNWFERIRTRPATARALLQAQLHCNSTKA” the value was “not soluble”; for “DCMFGNGKGYRGKRVTTVTGTPCQDWAAQEPHRHSIFTPETNPRAGLEKNYCRNPDGDVGGPWCYTTNPRKLYDYCDVPQCAAP”, “soluble”.

Source of the values: the DeepSol protein solubility set.
